Residue numbers refer to the chain shown, from its start. In names and notes the source's numbering stands. Like-named read-outs stand apart in the source and are kept apart here.
Columns and labels:
human C-reactive protein [1] = molecular target: T1, human C-reactive protein (human, UniProt P02741 19-224); experiment: ELISA, CRP coated at 2 µg/mL
T1 construct: also called CRP; antigen CRP
T1 sequence (looked up): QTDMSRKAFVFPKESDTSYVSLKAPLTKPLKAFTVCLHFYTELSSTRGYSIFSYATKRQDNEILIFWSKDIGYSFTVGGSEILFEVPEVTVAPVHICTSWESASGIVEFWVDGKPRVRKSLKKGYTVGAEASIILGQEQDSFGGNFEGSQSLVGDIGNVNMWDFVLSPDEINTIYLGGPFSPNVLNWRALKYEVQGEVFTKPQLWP

human C-reactive protein [2] = molecular target: T1, human C-reactive protein; experiment: BLI (FORTEBIO-OCTET), antibody at 10 µg/mL, CRP at 200-3.13 nM
OVA = molecular target: T2, OVA (UniProt P01012 2-386); experiment: ELISA, protein coated at 2 µg/mL, antibody in gradient dilution
T2 construct: Control protein coated at 2 µg/mL; also called unrelated protein OVA
T2 sequence (looked up): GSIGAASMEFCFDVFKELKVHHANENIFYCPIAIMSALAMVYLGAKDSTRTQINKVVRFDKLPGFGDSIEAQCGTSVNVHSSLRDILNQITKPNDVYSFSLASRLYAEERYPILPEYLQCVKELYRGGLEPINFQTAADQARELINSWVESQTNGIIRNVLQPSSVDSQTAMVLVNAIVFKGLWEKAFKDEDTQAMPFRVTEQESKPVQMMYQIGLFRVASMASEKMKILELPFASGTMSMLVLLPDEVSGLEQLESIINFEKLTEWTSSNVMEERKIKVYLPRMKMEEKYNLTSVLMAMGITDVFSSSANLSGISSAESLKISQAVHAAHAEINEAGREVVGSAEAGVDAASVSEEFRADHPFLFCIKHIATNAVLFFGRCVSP

BSA = molecular target: T3, BSA (UniProt P02769 25-607); experiment: as above
T3 construct: Control protein coated at 2 µg/mL; also called unrelated protein BSA

human C-reactive protein [3] = molecular target: T1, human C-reactive protein

T3 sequence (P02769 25-607 limits assumed): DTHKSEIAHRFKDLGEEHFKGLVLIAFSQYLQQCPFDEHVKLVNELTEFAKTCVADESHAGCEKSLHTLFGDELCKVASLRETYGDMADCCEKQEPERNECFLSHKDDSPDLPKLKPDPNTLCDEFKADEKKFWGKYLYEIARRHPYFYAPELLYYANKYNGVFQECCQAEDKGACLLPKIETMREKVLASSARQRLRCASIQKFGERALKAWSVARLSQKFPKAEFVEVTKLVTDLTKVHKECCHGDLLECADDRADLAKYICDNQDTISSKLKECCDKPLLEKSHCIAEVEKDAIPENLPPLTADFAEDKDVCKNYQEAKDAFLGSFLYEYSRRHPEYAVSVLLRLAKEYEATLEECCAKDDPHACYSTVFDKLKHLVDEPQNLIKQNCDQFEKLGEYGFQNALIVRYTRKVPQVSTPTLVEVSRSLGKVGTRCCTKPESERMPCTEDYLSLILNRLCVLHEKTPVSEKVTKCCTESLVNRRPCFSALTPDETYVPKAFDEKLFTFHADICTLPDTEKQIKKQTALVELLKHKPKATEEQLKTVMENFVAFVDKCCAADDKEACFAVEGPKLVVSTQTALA

B1: D4-12 heavy chain antibody variable region (VHH)
VHH: EVQLQQSGPELVKPGASVKISCKASGYMFSDYYMNWVKQSHGKSLEWIGNVDPNTDNTIYNQNFKDKATLTVDRSSRTAYMELHSLTSEDSAVYYCARSRFYDPWFAYWGQGTLVTVSA
B1: binds (human C-reactive protein [1]).

B2: D5S-12 heavy chain antibody (VHH)
VHH: EVKLLESGGGLVKPGGSLKLSCAASGFTFSDYGMSWIRQTPDKRLEWVATISSGNTYTYYSKSVKGRFTISRDNAKNTLYLQMSSLKSEDTAIYYCSRHTSDYYPLSQGTLVTVSA
B2 was tested, and the Kd (human C-reactive protein [2]) was 987 pM, the koff (human C-reactive protein [2]) was 8.44e-05 s⁻¹ and the kon (human C-reactive protein [2]) was 85500 M⁻¹ s⁻¹. B2: no binding (OVA); no binding (BSA).

B3: G3-35 (VHH)
VHH: EVQLQQSGPELVKPGASVRMSCKASGYTFTDYNIHWVKQSHGESLEWIGFVNPDNGDTYYYKNFKGKATLTFNRSSSTAYMDLRSLTSEDSAVYYCARGTTVEKDYWGQGTTLTVSS
B3: binds (human C-reactive protein [3]).

B4: G3-23 (VHH)
VHH: B3 VHH with L11V, V12L, A16T, H41R, N55T, T112I
B4: binds (human C-reactive protein [3]).

B5: G3-71 (VHH)
VHH: B3 VHH with V51I, K65R, F72L, R74K, A92G, T112I
B5: binds (human C-reactive protein [3]).
